Test results as given in the supplement of paper PMC7125110.
± gives the standard error. Fewer inactive variants are shown than the library holds.

B1: glmS ribozyme (parent)
chain: AUAAAAGCGCCAGAACUACAGAAAUGUAGUUGACGAGGAGGAGGUUUAUCGAAUUUUCGGCGGAUGCCUCCAAA

Assays:
Details in all cases: with glucosamine-6-phosphate
glucosamine-6-phosphate [1] = variants of: B1; assay: self-cleavage kobs at 40 uM GlcN6P; higher = faster cleavage; RNA array
In short: (§1)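 A hybridised Cy3 probe tracked barcoded ribozyme variants, transcribed in situ by E. coli RNA polymerase on sequenced MiSeq chips, at 37 °C. The variants received 40 μM to 10 mM glucosamine-6-phosphate in HEPES/KCl/Mg(OAc)2 buffer. kobs came from decay fits and kcat and KM from weighted Michaelis–Menten fits.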

glucosamine-6-phosphate [2] = variants of: B1; assay: self-cleavage kobs at 160 uM GlcN6P; higher = faster cleavage; RNA array
In short: as §1

glucosamine-6-phosphate [3] = variants of: B1; assay: self-cleavage kobs at 640 uM GlcN6P; higher = faster cleavage; RNA array
In short: as §1

glucosamine-6-phosphate [4] = variants of: B1; assay: self-cleavage kobs at 2500 uM GlcN6P; higher = faster cleavage; RNA array
In short: as §1

glucosamine-6-phosphate [5] = variants of: B1; assay: self-cleavage kobs at 10000 uM GlcN6P; higher = faster cleavage; RNA array
In short: as §1

Variant | self-cleavage kobs at 40 uM GlcN6P (glucosamine-6-phosphate [1]) [s⁻¹] | self-cleavage kobs at 160 uM GlcN6P (glucosamine-6-phosphate [2]) [s⁻¹] | self-cleavage kobs at 640 uM GlcN6P (glucosamine-6-phosphate [3]) [s⁻¹] | self-cleavage kobs at 2500 uM GlcN6P (glucosamine-6-phosphate [4]) [s⁻¹] | self-cleavage kobs at 10000 uM GlcN6P (glucosamine-6-phosphate [5]) [s⁻¹]
A42U G62U | < 1e-05 | < 1e-05 | < 1e-05 | < 1e-05 | –
C16U A33G | < 1e-05 | – | – | – | < 1e-05
A14G G59A U65G G66A | < 1e-05 | – | – | < 1e-05 | –
U30A G35A | < 1e-05 | < 1e-05 | < 1e-05 | < 1e-05 | < 1e-05
A14G A39U U56C | 0.000144 ± 2.6e-05 | – | – | – | 0.00921 ± 0.0012
G32U U56A C61G C67A | 7.99e-05 ± 3e-05 | – | – | – | –
G43A U57A | < 1e-05 | – | – | < 1e-05 | < 1e-05
G43U A64C | < 1e-05 | < 1e-05 | < 1e-05 | – | < 1e-05
A33U A53U A64U | < 1e-05 | – | – | – | < 1e-05
G9C C71G | < 1e-05 | < 1e-05 | < 1e-05 | < 1e-05 | < 1e-05
C8A U55G A64C U69G | 0.000295 ± 0.00013 | – | – | – | 5.15e-05 ± 2.4e-05
C8G G66U | < 1e-05 | < 1e-05 | < 1e-05 | < 1e-05 | –
G13A C16U G37U C67U | < 1e-05 | – | – | – | –
G7A A14U C58A C68G | 0.000142 ± 4e-05 | – | 0.00047 ± 0.00023 | – | 0.00011 ± 2.5e-05
C16A A36C G51A A53U U69G | 6.48e-05 ± 2.5e-05 | – | – | – | 4.91e-05 ± 1.6e-05
G41U G62A G63U | < 1e-05 | – | – | – | < 1e-05
A15U U31A G32A A36U U57A C58G C71U | 5.17e-05 ± 2.1e-05 | – | – | – | 0.000109 ± 2.6e-05
G44U A53C C58U C71U | < 1e-05 | < 1e-05 | < 1e-05 | < 1e-05 | < 1e-05
C16A G29U U31C | 3.38e-05 ± 1.4e-05 | – | – | – | 0.000493 ± 0.00013
G13U G41C U46G C50G | < 1e-05 | – | – | – | –
A12U A36G U54A | < 1e-05 | – | – | – | –
U31C G40U G44U U46G | < 1e-05 | – | – | – | –
U56G G62U C68G | < 1e-05 | – | – | – | < 1e-05
A6C G35U G38A G43U U54G C67U | < 1e-05 | – | – | < 1e-05 | < 1e-05

Variant | self-cleavage kobs at 40 uM GlcN6P (glucosamine-6-phosphate [1]) [s⁻¹] | self-cleavage kobs at 160 uM GlcN6P (glucosamine-6-phosphate [2]) [s⁻¹] | self-cleavage kobs at 640 uM GlcN6P (glucosamine-6-phosphate [3]) [s⁻¹] | self-cleavage kobs at 2500 uM GlcN6P (glucosamine-6-phosphate [4]) [s⁻¹] | self-cleavage kobs at 10000 uM GlcN6P (glucosamine-6-phosphate [5]) [s⁻¹]
C8A G38C C71A | < 1e-05 | – | < 1e-05 | – | –
G44U C70A | < 1e-05 | < 1e-05 | < 1e-05 | < 1e-05 | < 1e-05
G38U C58U | < 1e-05 | – | – | < 1e-05 | < 1e-05
G32U A36G G59A | < 1e-05 | – | – | < 1e-05 | < 1e-05
G9U C34A G35C G43U | < 1e-05 | – | – | < 1e-05 | –
A12U G41U U54A | 4.72e-05 ± 1.9e-05 | – | – | – | 0.000602 ± 0.00016
G13U A33U G44C | < 1e-05 | – | – | – | –
G41U U46G C67U | < 1e-05 | < 1e-05 | < 1e-05 | – | –
A33G G44U C67U | < 1e-05 | – | – | – | < 1e-05
A36G U54C | < 1e-05 | < 1e-05 | – | – | –
G13C G51C G63C | < 1e-05 | – | – | – | –
C8A A14G | < 1e-05 | – | < 1e-05 | – | –
C34A A39G A64C | < 1e-05 | – | < 1e-05 | < 1e-05 | < 1e-05
G29C C68A | < 1e-05 | – | – | – | –
A12G C61G | < 1e-05 | – | – | – | < 1e-05
A14C A36G | < 1e-05 | < 1e-05 | < 1e-05 | < 1e-05 | < 1e-05
C10A G13U G37U G60A U65A | < 1e-05 | – | < 1e-05 | – | < 1e-05
A39U A42G U56G A64C | < 1e-05 | – | – | – | 4.69e-05 ± 1.8e-05
A14U G32C C50A C68G | 8.36e-05 ± 3e-05 | – | 0.000278 ± 7.7e-05 | 0.000126 ± 6e-05 | 7.34e-05 ± 2.2e-05
A33G G41U | < 1e-05 | < 1e-05 | < 1e-05 | – | < 1e-05
G32A G41C | < 1e-05 | – | < 1e-05 | – | 3.31e-05 ± 8.8e-06
C11A U46A | < 1e-05 | – | < 1e-05 | – | < 1e-05
A15C U30G A39U | 0.00162 ± 0.00029 | – | – | – | 0.0346 ± 0.013
G7A G38U C58A | < 1e-05 | – | – | – | < 1e-05

Variant | self-cleavage kobs at 40 uM GlcN6P (glucosamine-6-phosphate [1]) [s⁻¹] | self-cleavage kobs at 160 uM GlcN6P (glucosamine-6-phosphate [2]) [s⁻¹] | self-cleavage kobs at 640 uM GlcN6P (glucosamine-6-phosphate [3]) [s⁻¹] | self-cleavage kobs at 2500 uM GlcN6P (glucosamine-6-phosphate [4]) [s⁻¹] | self-cleavage kobs at 10000 uM GlcN6P (glucosamine-6-phosphate [5]) [s⁻¹]
A36G C67U | < 1e-05 | – | – | – | –
A14C A15G C70U | 6.72e-05 ± 1.7e-05 | 0.000124 ± 2.7e-05 | 0.000547 ± 0.00017 | 0.00207 ± 0.00058 | –
G35U G41U C70U | < 1e-05 | – | – | – | < 1e-05
A6U G41A A42U | < 1e-05 | – | – | – | < 1e-05
G29C U30C A33C A42G U55A U56A | < 1e-05 | – | – | – | < 1e-05
U30A A42U U55C | < 1e-05 | – | – | – | –
G13U A33C | < 1e-05 | < 1e-05 | < 1e-05 | < 1e-05 | –
U47A A53G U54G | 0.000659 ± 0.00016 | – | – | – | 0.0222 ± 0.0081
G13A A39U C61U | < 1e-05 | – | – | < 1e-05 | –
C10A A14C A42C G63A | < 1e-05 | < 1e-05 | – | – | < 1e-05
A33G A36G A39C U45A | < 1e-05 | < 1e-05 | – | < 1e-05 | < 1e-05
C11U A15C U46A | < 1e-05 | < 1e-05 | < 1e-05 | – | –
G35U A42G | < 1e-05 | < 1e-05 | < 1e-05 | < 1e-05 | < 1e-05
G43A G51A | < 1e-05 | < 1e-05 | – | < 1e-05 | < 1e-05
A14U G51A | < 1e-05 | – | – | – | < 1e-05
A64G U65G C71A | 5.45e-05 ± 2.2e-05 | – | – | – | 0.00131 ± 0.00024
A12C A14C C70U | < 1e-05 | – | – | 9.06e-05 ± 1.4e-05 | 8.48e-05 ± 1.8e-05
G38U A48G G51U | < 1e-05 | – | – | – | < 1e-05
A33G A64U | < 1e-05 | – | – | – | < 1e-05
C8G G29A | < 1e-05 | < 1e-05 | < 1e-05 | < 1e-05 | < 1e-05
C8U G38U U49G C50A C68G | 0.00105 ± 0.00026 | – | – | – | 0.000545 ± 0.00014
C8U A64G C68U | < 1e-05 | – | – | – | < 1e-05
G9A G37A | < 1e-05 | < 1e-05 | < 1e-05 | < 1e-05 | < 1e-05
C8U A15G G38U C61G C68G | 0.00048 ± 0.00015 | – | – | – | 0.000181 ± 4.8e-05

Variant | self-cleavage kobs at 40 uM GlcN6P (glucosamine-6-phosphate [1]) [s⁻¹] | self-cleavage kobs at 160 uM GlcN6P (glucosamine-6-phosphate [2]) [s⁻¹] | self-cleavage kobs at 640 uM GlcN6P (glucosamine-6-phosphate [3]) [s⁻¹] | self-cleavage kobs at 2500 uM GlcN6P (glucosamine-6-phosphate [4]) [s⁻¹] | self-cleavage kobs at 10000 uM GlcN6P (glucosamine-6-phosphate [5]) [s⁻¹]
G7A U69G | 0.000261 ± 4.3e-05 | – | 7.58e-05 ± 3.5e-05 | – | 0.000569 ± 0.00011
A14U C50G C67U | 0.00027 ± 6.3e-05 | 0.000222 ± 7e-05 | 0.000192 ± 5.6e-05 | 0.000193 ± 5.8e-05 | 0.000112 ± 1.9e-05
G13C G60A | < 1e-05 | < 1e-05 | < 1e-05 | < 1e-05 | < 1e-05
A39U C68U C71G | < 1e-05 | – | – | – | 4.42e-05 ± 2e-05
G37C A64U | < 1e-05 | < 1e-05 | < 1e-05 | < 1e-05 | < 1e-05
A6C G51A | < 1e-05 | < 1e-05 | – | < 1e-05 | < 1e-05
U31G G43A C61A C68A | < 1e-05 | < 1e-05 | < 1e-05 | < 1e-05 | –
A42U G62U C71G | < 1e-05 | – | – | – | < 1e-05
G38A A42U C70A | < 1e-05 | – | – | < 1e-05 | < 1e-05
A39G U55G C67A | 0.000369 ± 0.00011 | – | – | – | 0.0117 ± 0.003
A6C C61G | < 1e-05 | – | < 1e-05 | – | < 1e-05
C8U G51C | < 1e-05 | < 1e-05 | – | < 1e-05 | < 1e-05
U47G C67U | 0.000141 ± 2.6e-05 | 0.000305 ± 5.6e-05 | 0.00064 ± 8.6e-05 | 0.00125 ± 0.0002 | 0.00343 ± 0.00067
G60C C67G | < 1e-05 | < 1e-05 | < 1e-05 | – | < 1e-05
C8A C10A C34U G60A | < 1e-05 | – | – | – | –
G44A A52G | < 1e-05 | < 1e-05 | – | – | –
G60A C71U | < 1e-05 | – | < 1e-05 | – | –
C10G G51C C58A | < 1e-05 | – | < 1e-05 | – | < 1e-05
G44U G51U C67G | < 1e-05 | – | – | < 1e-05 | < 1e-05
C34U U65A C67G | 0.000176 ± 7.1e-05 | – | – | – | –
A15C A52C C70U C71G | < 1e-05 | – | – | – | –
A14U A15G G43C | < 1e-05 | – | < 1e-05 | < 1e-05 | –
A36G G44U U45C G51A G63C U69G C70G | < 1e-05 | – | – | – | < 1e-05
